Assay results as given in US20190127480A1.

Biological target: human CD3 expressed on cells (Jurkat cells; human T-cells of PBMC) (human) (UniProt P09693)
Experiment: cell-based or functional assay

Sequence of human CD3 expressed on cells (Jurkat cells; human T-cells of PBMC) (human) (chain, as listed by the source, chain 1 of 4): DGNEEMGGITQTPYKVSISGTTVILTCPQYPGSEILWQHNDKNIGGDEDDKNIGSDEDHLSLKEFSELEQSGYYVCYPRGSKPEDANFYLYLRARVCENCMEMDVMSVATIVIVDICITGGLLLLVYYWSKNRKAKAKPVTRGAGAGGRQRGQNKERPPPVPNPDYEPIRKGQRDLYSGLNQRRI
Sequence of human CD3 expressed on cells (Jurkat cells; human T-cells of PBMC) (human) (chain, as listed by the source, chain 2 of 4): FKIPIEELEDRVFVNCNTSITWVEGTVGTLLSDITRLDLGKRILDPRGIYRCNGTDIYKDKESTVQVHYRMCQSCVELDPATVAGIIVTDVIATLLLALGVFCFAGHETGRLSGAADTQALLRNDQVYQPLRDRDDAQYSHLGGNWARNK
Sequence of human CD3 expressed on cells (Jurkat cells; human T-cells of PBMC) (human) (P09693 23-182, chain 3 of 4): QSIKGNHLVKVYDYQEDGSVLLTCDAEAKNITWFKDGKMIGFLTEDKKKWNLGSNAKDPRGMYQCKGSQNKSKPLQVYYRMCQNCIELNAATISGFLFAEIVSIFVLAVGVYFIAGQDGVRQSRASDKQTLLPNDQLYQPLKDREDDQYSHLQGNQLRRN
Sequence of human CD3 expressed on cells (Jurkat cells; human T-cells of PBMC) (human) (P20963 22-164, chain 4 of 4): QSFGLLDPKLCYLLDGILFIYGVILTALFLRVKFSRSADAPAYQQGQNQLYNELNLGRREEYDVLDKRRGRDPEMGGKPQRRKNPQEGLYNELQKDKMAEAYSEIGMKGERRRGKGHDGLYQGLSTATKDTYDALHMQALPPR

B1: H1H5756B (antibody, human IgG1, V domains shown)
VH: EVQLVESGGGVVQPGRSLRLSCTASGFPFSRYGMHWVRQAPGKGLEWVTFIWYDGSNKYYADSAKGRFTITRDNSKNTVYLQMDSLRADDTAVYYCVRDQAALYYFDSWGQGTLVTVSS
VL: DIQMTQSPSSVSASVGDRVTITCRASQGISRWLAWYQQKPGKAPKLLISAASSLQSGVPSRFSGSGSGTDFTLTISGLQPEDFATYYCQKANSFPFTFGPGTKLEIKR
U937 Cytotoxicity Human T-cells: 76.9 pM
